{"source": "the supplement of paper PMC12042874", "assay": "amyloid nucleation score (Sup35N fusion, yeast selection) (log enrichment); library NNK2; higher = more nucleation; inactive = no reads after selection", "procedure,_shortened": "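Libraries of peptides of 20 random codons fused to Sup35N were expressed in psi-negative yeast and induced 24 hours with 100 μM copper sulfate. Selection was 7 days at 30°C on medium lacking adenine and uracil, and plasmid inserts were Illumina-sequenced before and after selection. Nucleation score is the DiMSum log enrichment of output over input reads, centred on the mode score of non-aggregating sequences, and sequences with under 100 input reads were left out.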", "note": "± gives the uncertainty stated by the source.", "data": [{"substance": "VCVRTTWRKDGSISCTHKSP", "values": [{"measurement": "amyloid nucleation score", "result": "0.5 ± 0.18"}]}, {"substance": "QDRVFYIAYVNNVS", "values": [{"measurement": "amyloid nucleation score", "result": "5.606 ± 0.04"}]}, {"substance": "IIFPGCKYLRYKDKEK", "values": [{"measurement": "amyloid nucleation score", "result": "inactive"}]}, {"substance": "GDKYCGLEPYGMGHNHMYAL", "values": [{"measurement": "amyloid nucleation score", "result": "0.546 ± 0.56"}]}, {"substance": "SCIMLIVPMINSAYAVLLWR", "values": [{"measurement": "amyloid nucleation score", "result": "-0.771 ± 0.62"}]}, {"substance": "LVSNSSLSYPLDSYGSSRSD", "values": [{"measurement": "amyloid nucleation score", "result": "-0.113 ± 0.49"}]}, {"substance": "LRCHDGVKLSKSVCECCMYM", "values": [{"measurement": "amyloid nucleation score", "result": "2.37 ± 0.19"}]}, {"substance": "SNVWAQ", "values": [{"measurement": "amyloid nucleation score", "result": "0.571 ± 0.57"}]}, {"substance": "HCSCVKNSTSTDIEE", "values": [{"measurement": "amyloid nucleation score", "result": "inactive"}]}, {"substance": "CDSWWYFSNKANSLWSKCSA", "values": [{"measurement": "amyloid nucleation score", "result": "-0.723 ± 0.35"}]}, {"substance": "CNFEHFFYKVFRFLQWTVYE", "values": [{"measurement": "amyloid nucleation score", "result": "-0.153 ± 1.1"}]}, {"substance": "LWRVGHVHSWICPAICHGKC", "values": [{"measurement": "amyloid nucleation score", "result": "4.37 ± 0.057"}]}, {"substance": "TVLPAVCYGVLNSRFRVTME", "values": [{"measurement": "amyloid nucleation score", "result": "inactive"}]}, {"substance": "SYVGVSNGRVVWVRVMANSK", "values": [{"measurement": "amyloid nucleation score", "result": "inactive"}]}, {"substance": "VKTRCVVHCMNNFPGCMIEL", "values": [{"measurement": "amyloid nucleation score", "result": "6.887 ± 0.065"}]}, {"substance": "SAYVVLIEFVLNKVVGTLLR", "values": [{"measurement": "amyloid nucleation score", "result": "-0.634 ± 0.63"}]}, {"substance": "PILLMSTVTRRLVRCNVAFK", "values": [{"measurement": "amyloid nucleation score", "result": "0.391 ± 0.51"}]}, {"substance": "FTNCEYNVDISCVSGLSYSI", "values": [{"measurement": "amyloid nucleation score", "result": "inactive"}]}, {"substance": "LQVRSDSMNGFNW", "values": [{"measurement": "amyloid nucleation score", "result": "-0.61 ± 1.1"}]}, {"substance": "CWTEY", "values": [{"measurement": "amyloid nucleation score", "result": "-0.589 ± 0.3"}]}, {"substance": "SWKFNRASPSEMMCASNAWN", "values": [{"measurement": "amyloid nucleation score", "result": "0.404 ± 0.8"}]}, {"substance": "MGMLFMFVITKKSLVQDSLY", "values": [{"measurement": "amyloid nucleation score", "result": "2.64 ± 0.19"}]}, {"substance": "KYRCLLRATPFDKEVGSTRF", "values": [{"measurement": "amyloid nucleation score", "result": "-0.753 ± 1"}]}, {"substance": "LSGVFNSFCLRGNGREWVAL", "values": [{"measurement": "amyloid nucleation score", "result": "-0.034 ± 0.32"}]}, {"substance": "MYSISVNMKNSFRNL", "values": [{"measurement": "amyloid nucleation score", "result": "0.566 ± 0.66"}]}, {"substance": "PSDSLVYVYDL", "values": [{"measurement": "amyloid nucleation score", "result": "-0.41 ± 0.38"}]}, {"substance": "FNVSVCCG", "values": [{"measurement": "amyloid nucleation score", "result": "0.607 ± 0.65"}]}, {"substance": "RCVGNCMMSLRAEYD", "values": [{"measurement": "amyloid nucleation score", "result": "2.8 ± 0.079"}]}, {"substance": "RGREL", "values": [{"measurement": "amyloid nucleation score", "result": "-1.66 ± 0.54"}]}, {"substance": "FIDDSDFKYSYSAQFVCLID", "values": [{"measurement": "amyloid nucleation score", "result": "4.91 ± 0.1"}]}, {"substance": "FCELLIVAVLLQGDSLKPQS", "values": [{"measurement": "amyloid nucleation score", "result": "0.485 ± 0.36"}]}, {"substance": "VLSNNFWRMSNFWVRMRHTL", "values": [{"measurement": "amyloid nucleation score", "result": "-0.25 ± 0.63"}]}, {"substance": "VTLRTANGDKWKTPASNI", "values": [{"measurement": "amyloid nucleation score", "result": "inactive"}]}, {"substance": "VFRISLRSSLYML", "values": [{"measurement": "amyloid nucleation score", "result": "4.13 ± 0.099"}]}, {"substance": "ESTWVCIFSRVLYGGYCGDQ", "values": [{"measurement": "amyloid nucleation score", "result": "0.244 ± 0.33"}]}, {"substance": "KAGVKLSLGNCRYSTL", "values": [{"measurement": "amyloid nucleation score", "result": "0.527 ± 0.8"}]}, {"substance": "QGKNAFAGLGYMSHKRRMWG", "values": [{"measurement": "amyloid nucleation score", "result": "0.686 ± 0.39"}]}, {"substance": "WAGRCDHK", "values": [{"measurement": "amyloid nucleation score", "result": "0.227 ± 0.25"}]}, {"substance": "NDWCRGENITALWDGYGSGL", "values": [{"measurement": "amyloid nucleation score", "result": "0.597 ± 0.46"}]}, {"substance": "VLDVVLYPGKF", "values": [{"measurement": "amyloid nucleation score", "result": "0.176 ± 0.26"}]}, {"substance": "RCTGDLGRVARFWYETVKLN", "values": [{"measurement": "amyloid nucleation score", "result": "-0.066 ± 0.39"}]}, {"substance": "QTPIGK", "values": [{"measurement": "amyloid nucleation score", "result": "-0.66 ± 1.1"}]}, {"substance": "VGTWATFYVLTCKGEFDPGL", "values": [{"measurement": "amyloid nucleation score", "result": "7.83 ± 0.083"}]}, {"substance": "MPPGCRMIFALIVVVIQFNF", "values": [{"measurement": "amyloid nucleation score", "result": "0.04 ± 0.76"}]}, {"substance": "DGSMFGPDVCFYIVSLILPF", "values": [{"measurement": "amyloid nucleation score", "result": "5.03 ± 0.07"}]}, {"substance": "FCFFSLVRLYKGYRSSINLA", "values": [{"measurement": "amyloid nucleation score", "result": "inactive"}]}, {"substance": "SYSSPHRINGCVIRP", "values": [{"measurement": "amyloid nucleation score", "result": "-0.084 ± 0.54"}]}, {"substance": "TWRYHFADVGSILDLVG", "values": [{"measurement": "amyloid nucleation score", "result": "-0.277 ± 0.4"}]}, {"substance": "YFFITYVPSEAGYRREKWFG", "values": [{"measurement": "amyloid nucleation score", "result": "7.34 ± 0.082"}]}, {"substance": "SSSDFEFSHVIKGAIFRLFT", "values": [{"measurement": "amyloid nucleation score", "result": "-1.2 ± 1"}]}, {"substance": "GENKDYWGHGYVSLACNRQG", "values": [{"measurement": "amyloid nucleation score", "result": "0.492 ± 0.38"}]}, {"substance": "PNSPRMNESLSFIFPGDVSG", "values": [{"measurement": "amyloid nucleation score", "result": "-0.474 ± 1"}]}, {"substance": "TLKVRNLNVQEFVVSPNQRH", "values": [{"measurement": "amyloid nucleation score", "result": "4.99 ± 0.088"}]}, {"substance": "YSYWLSILRNVEL", "values": [{"measurement": "amyloid nucleation score", "result": "4.18 ± 0.079"}]}, {"substance": "GIMGDGGGHALWTEEELKVR", "values": [{"measurement": "amyloid nucleation score", "result": "1.01 ± 0.23"}]}, {"substance": "LTYNISQCYILFFVYITGHD", "values": [{"measurement": "amyloid nucleation score", "result": "inactive"}]}, {"substance": "NLRGETRGVKLCLIWDVGRA", "values": [{"measurement": "amyloid nucleation score", "result": "0.078 ± 0.55"}]}, {"substance": "INSLTKAVYYSSHYYPVSLS", "values": [{"measurement": "amyloid nucleation score", "result": "inactive"}]}, {"substance": "CEFLMLFREFLDW", "values": [{"measurement": "amyloid nucleation score", "result": "4.59 ± 0.055"}]}, {"substance": "CGMRTEMTLGCLILAAGTWT", "values": [{"measurement": "amyloid nucleation score", "result": "0.111 ± 0.5"}]}, {"substance": "SGTALTRAESSTLMFNRNYR", "values": [{"measurement": "amyloid nucleation score", "result": "0.106 ± 0.41"}]}, {"substance": "LDRYLG", "values": [{"measurement": "amyloid nucleation score", "result": "0.064 ± 0.3"}]}, {"substance": "NSITSRYNGTDGPESVSQ", "values": [{"measurement": "amyloid nucleation score", "result": "-0.299 ± 0.79"}]}, {"substance": "SICGEVYWWNLG", "values": [{"measurement": "amyloid nucleation score", "result": "-0.978 ± 0.28"}]}, {"substance": "MQISKQTFPHNWVVYRSDYG", "values": [{"measurement": "amyloid nucleation score", "result": "-0.776 ± 1.1"}]}, {"substance": "ITNDLSLYYVARVGRTDYHF", "values": [{"measurement": "amyloid nucleation score", "result": "1.13 ± 0.12"}]}, {"substance": "IMYPLRNLAQDFLGDSVSYL", "values": [{"measurement": "amyloid nucleation score", "result": "-1.07 ± 0.62"}]}, {"substance": "VFAYIHFVTLGGCLLGF", "values": [{"measurement": "amyloid nucleation score", "result": "1.3 ± 0.47"}]}, {"substance": "GLSAKNH", "values": [{"measurement": "amyloid nucleation score", "result": "0.279 ± 0.39"}]}, {"substance": "HHFNCCTGNFYIYKLDDSLI", "values": [{"measurement": "amyloid nucleation score", "result": "5.485 ± 0.048"}]}, {"substance": "FLYLALCKI", "values": [{"measurement": "amyloid nucleation score", "result": "2.49 ± 0.14"}]}, {"substance": "FCRSYCVLVYLWSPYVTGSK", "values": [{"measurement": "amyloid nucleation score", "result": "0.349 ± 0.5"}]}, {"substance": "TTENNCLVREKVVYGWMWSS", "values": [{"measurement": "amyloid nucleation score", "result": "0.149 ± 0.25"}]}, {"substance": "VVRYLPCRRLPVWWVVCYEI", "values": [{"measurement": "amyloid nucleation score", "result": "0.488 ± 0.29"}]}, {"substance": "SARPELCMPIIRLCGSREDQ", "values": [{"measurement": "amyloid nucleation score", "result": "-0.056 ± 0.22"}]}, {"substance": "DSNTPHASMRYISFKRFFFV", "values": [{"measurement": "amyloid nucleation score", "result": "-0.107 ± 1"}]}, {"substance": "EYSTFPRRSDRSEIHFSINL", "values": [{"measurement": "amyloid nucleation score", "result": "3.47 ± 0.12"}]}, {"substance": "GSRGMVFQMFT", "values": [{"measurement": "amyloid nucleation score", "result": "0.94 ± 0.48"}]}, {"substance": "CVMMLSSFLQRCRRVVLDSR", "values": [{"measurement": "amyloid nucleation score", "result": "0.325 ± 0.56"}]}, {"substance": "AADSRYGGNGCFRSMLFALI", "values": [{"measurement": "amyloid nucleation score", "result": "0.817 ± 0.45"}]}, {"substance": "VLEKRFIRL", "values": [{"measurement": "amyloid nucleation score", "result": "-0.785 ± 0.46"}]}, {"substance": "CQRTTGALTSGWKPDDIGSV", "values": [{"measurement": "amyloid nucleation score", "result": "0.192 ± 0.46"}]}, {"substance": "NRNTTFLNYF", "values": [{"measurement": "amyloid nucleation score", "result": "1.94 ± 0.25"}]}, {"substance": "LHLFIVGRKWSGDESAFLYA", "values": [{"measurement": "amyloid nucleation score", "result": "0.154 ± 0.5"}]}, {"substance": "QMNVSTYSCNLD", "values": [{"measurement": "amyloid nucleation score", "result": "0.044 ± 1.1"}]}, {"substance": "GIRLGSNDQSVYSRPNV", "values": [{"measurement": "amyloid nucleation score", "result": "1.46 ± 0.35"}]}]}
